Reference: publication PMC7728349, “Exploring the Interaction between the SWI/SNF Chromatin Remodeling Complex and the Zinc Finger Factor CTCF” (International Journal of Molecular Sciences, 2020)
Entries after “also recorded” stand apart in the source; their conditions may differ.

Tests used:
[1] = target: T1, CTCF zinc finger domains 4–8 (residues 348–494), MBP-fused (Homo sapiens, UniProt P49711); assay: Biolayer interferometry (BLI), immobilised BRK-BRG1 vs MBP-fused CTCF zinc fingers 4–8; assay type: binding
T1 construct: and 4–8 (residues 348–494) in a bacterial expression system; made in house; host or cells: E. coli BL21
Method: (§1) 4.8. Recombinant CTCF Zinc Finger Domains 1–11 and 4–8 Expression and Purification
(§2) The plasmids CTCF-ZF1-11-pMalC2G and CTF-ZF4-8-pMalC2G, obtained as previously reported, were used to transform E. coli BL21 host strain. Transformed colonies were inoculated in LB 0.2% glucose medium and grown a 37 °C, until the culture reached the optical density of 0.6 nm at 600 nm (OD600). At this point of growth, 200 µM ZnSO4 was added to the culture and the expression of the protein was induced by using IPTG 0.3 mM. When the culture reached 0.9 OD600, bacterial cells were harvested by centrifugation. Pellets were resuspended in PBS (pH 7.4) and lysed by sonication on ice. Lysates were centrifuged for 30 min at 27.500 relative centrifugal force and the supernatants containing the expressed proteins were loaded on amylose resin (New England Biolabs, Milan, Italy), according to the manufacturer’s protocol, and incubated overnight under rotation. Following washes with 1X PBS, the purified proteins MBP-CTF-ZF4-8 and MBP-CTCF-ZF1-11 were obtained adding maltose elution buffer (10 mM maltose, 1X PBS). Then, the affinity-purified proteins were loaded onto an HiLoad 26/60 Superdex 75 gel filtration chromatography column (GE Healthcare, Milan, Italy) equilibrated and eluted with PBS. The purified products were finally concentrated using a Amicon Ultra Centrifugal Filter (Merck).
4.9. […]

[2] = target: T2, CTCF zinc finger domains 1–11 (residues 263–582), MBP-fused (Homo sapiens, UniProt P49711); assay: Biolayer interferometry (BLI), immobilised BRK-BRG1 vs MBP-fused CTCF zinc fingers 1–11; assay type: binding
T2 construct: CTCF zinc finger domains 1–11 (residues 263–582) and 4–8 (residues 348–494); made in house; host or cells: E. coli BL21
Method: as §1, §2
4.9. […]

[3] = target: T3, MBP-fused CTCF zinc finger domains 1–11 (residues 263–582) (human, UniProt P49711 263-582); assay: BLI; synthetic BRK-BRG1 immobilised on ARG2 biosensor by EDC/NHS (BLItz); MBP-fused CTCF zinc finger domains as analytes in PBS; free MBP signal subtracted; KD from plateau shifts, one binding site hyperbola; settings: both partners purified
T3 construct: CTCF zinc finger domains 1-11, residues 263-582; also called MBP-CTCF-ZF1-11; CTCF domains 1–11; source: E. coli BL21, purified (amylose resin, Superdex 75 gel filtration)
T3 sequence (looked up): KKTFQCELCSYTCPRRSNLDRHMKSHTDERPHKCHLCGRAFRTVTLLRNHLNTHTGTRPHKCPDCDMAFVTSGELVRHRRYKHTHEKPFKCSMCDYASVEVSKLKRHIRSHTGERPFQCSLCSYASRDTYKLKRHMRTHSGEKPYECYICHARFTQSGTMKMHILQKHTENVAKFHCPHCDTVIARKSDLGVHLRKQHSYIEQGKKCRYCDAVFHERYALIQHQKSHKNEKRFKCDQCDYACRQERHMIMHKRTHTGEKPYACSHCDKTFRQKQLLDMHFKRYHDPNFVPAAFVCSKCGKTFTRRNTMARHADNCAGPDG

[4] = target: T4, MBP-fused CTCF zinc finger domains 4–8 (residues 348–494) (human, UniProt P49711 348-494); assay: as above; settings: both partners purified
T4 construct: CTCF zinc finger domains 4-8, residues 348-494; also called MBP-CTF-ZF4-8; CTCF domains 4–8; source: E. coli BL21, purified (amylose resin, Superdex 75 gel filtration)
T4 sequence (looked up): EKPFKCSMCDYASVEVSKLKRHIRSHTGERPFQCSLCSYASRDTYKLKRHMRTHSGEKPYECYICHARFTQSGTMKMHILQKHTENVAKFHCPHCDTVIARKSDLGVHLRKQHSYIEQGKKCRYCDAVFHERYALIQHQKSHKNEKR

[5] = system: BRK-BRG1 (BRK domain of human BRG1, region 612–656); assay: BLI detection limit, MBP-fused CTCF zinc finger domains on immobilised BRK-BRG1; assay type: binding; settings: PBS
Method: 4.9. Binding of BRK-BRG1 to Recombinant CTFC Multiple Zinc Finger Domains by Biolayer Interferometry (BLI)
BLI measurements were performed using a BLItz system and ARG2 commercial biosensors (ForteBio, CA, United States), following the manufacturer’s instructions. A reduced volume sample cuvette (4 µL) was used for all the experiments. Assays were performed by immobilizing the synthetic BRK-BRG1 domain on the surface of the sensor chip and exposing it to solutions of recombinant CTFC domain 1–11 or CTCF domains 4–8, both fused to MBP, dissolved in PBS at increasing concentrations. After pre-hydration for 10 min in PBS buffer, the immobilization was achieved by pre-activating the sensor surface for 180 s with EDC/NHS, both in water, at 0.4 M and 0.1 M, respectively. Then, the sensor chip was exposed for 300 s to a solution of BRK-BRG1 at 200 µg/mL in sodium acetate pH 4.5. After extensive washing with buffer, the sensor chip surface was deactivated using 1 M ethanolamine in water pH 8.5 for 180 s. Binding assays were performed after exposure for 30 s to PBS (running buffer) to acquire the initial baseline. Next, the derivatized chip was exposed to the CTFC protein solutions in PBS for 120 s, followed by PBS washes (120 s). Then, the sensor chip was fully regenerated, restoring the baseline, by treatment with a solution of NaOH 5 mM for 10 s and a further wash with PBS. […]

[6] = Precipitation of MBP-fused CTCF domains 1–11 in PBS; assay type: physicochemical; settings: concentrations higher than 3.0 µM
Method: as §2, with “(Merck). […]” for “(Merck).”

Ac-MSDLPVKVIHVESGKILTGTDAPKAGQLEAWLEMNPGYEVAPRSD-NH2 [BRK-BRG1]
direct binding to CTCF zinc fingers 4–8, result in words [1]: direct binding; also recorded: the region encompassing domains from 4 to 8 strongly contributes to this interaction; also recorded: binds the zinc finger motifs 4–8 of CTCF | direct binding to CTCF zinc finger region 1–11, result in words [2]: binds the CTCF region including the eleven zinc finger domains

B1: BRK domain of BRG1, region 612–656, synthetic polypeptide (peptide)
chain: Ac-MSDLPVKVIHVESGKILTGTDAPKAGQLEAWLEMNPGYEVAPRSD-NH2
notes: BRK domain of human BRG1, region 612-656; Coupled to the BLI sensor by EDC/NHS chemistry; also called BRK-BRG1; BRK-BRG1 domain; source: synthetic peptide (solid phase synthesis, purified by RP-HPLC)
Kd [3]: ~2300 nM | Kd [4]: ~95 nM

B2: MBP-fused CTFC domain 4–8: recombinant maltose-binding protein (MBP)-fused CTCF zinc finger domains 4–8 (residues 348–494) (protein)
chain: T4 sequence (looked up)
modifications: left off: MBP, end not stated, kept
BLI shift at low concentration, domains 4–8 ([5]; solutions at concentrations below 10 nM): No shifts were measured

B3: MBP-fused CTFC domains 1–11: recombinant maltose-binding protein (MBP)-fused CTCF zinc finger domains 1–11 (residues 263–582) (protein)
chain: T3 sequence (looked up)
modifications: left off: MBP, end not stated, kept
BLI shift at low concentration, domains 1–11 ([5]; solutions at concentrations below 0.5 µM): No shifts were measured | precipitation of the protein [6]: the protein underwent precipitation
